Laboratory results taken from patent publication US20260242478A1 (published 2026).

B1: Phage-344 clonal phage peptide MDWCPRHLWVHCFS (peptide)
peptide: MDWCPRHLWVHCFS
B2: Phage-361 clonal phage peptide MHWCPRHLWSECFN (peptide)
peptide: MHWCPRHLWSECFN
B3: Phage-343 clonal phage peptide MDWCPRDLWTQCFF (peptide)
peptide: MDWCPRDLWTQCFF
B4: Phage-338 clonal phage peptide MDWCPRFLWNECFY (peptide)
peptide: MDWCPRFLWNECFY
B5: Phage-350 clonal phage peptide MDWCPWFLWNECFN (peptide)
peptide: MDWCPWFLWNECFN
B6: Phage-353 clonal phage peptide IDWCPLHLWHECYH (peptide)
peptide: IDWCPLHLWHECYH
B7: Phage-342 clonal phage peptide MDWCPRNLWHECFA (peptide)
peptide: MDWCPRNLWHECFA
B8: Phage-359 clonal phage peptide MDWCPRPLWHECFA (peptide)
peptide: MDWCPRPLWHECFA
B9: Phage-351 clonal phage peptide MDWCPMNLWHECFA (peptide)
peptide: MDWCPMNLWHECFA
B10: Phage-352 clonal phage peptide MDWCPIHLWYECFN (peptide)
peptide: MDWCPIHLWYECFN
B11: Phage-336 clonal phage peptide MDWCPRDLWNWCFN (peptide)
peptide: MDWCPRDLWNWCFN
B12: Phage-345 clonal phage peptide MDFCPRFLWHECFN (peptide)
peptide: MDFCPRFLWHECFN
B13: Phage-357 clonal phage peptide MDWCPRLLWHECFN (peptide)
peptide: MDWCPRLLWHECFN
B14: Phage-346 clonal phage peptide MDWCPRHLWHACFS (peptide)
peptide: MDWCPRHLWHACFS
B15: Phage-349 clonal phage peptide LDWCPRHLWALCFN (peptide)
peptide: LDWCPRHLWALCFN
B16: Phage-356 clonal phage peptide MDWCPMYLWDECFF (peptide)
peptide: MDWCPMYLWDECFF
B17: Phage-360 clonal phage peptide … (as printed) (peptide)
peptide: MDWCPMFLWHECFS
B18: Phage-337 clonal phage peptide MDWCPKPLWHVCFA (peptide)
peptide: MDWCPKPLWHVCFA
B19: Phage-340 clonal phage peptide MSWCPIDLWSECFA (peptide)
peptide: MSWCPIDLWSECFA
B20: Phage-354 clonal phage peptide MDWCPRYLWLECFN (peptide)
peptide: MDWCPRYLWLECFN
B21: Phage-348 clonal phage peptide MAWCPWYLWDECFN (peptide)
peptide: MAWCPWYLWDECFN
B22: Phage-362 clonal phage peptide MDWCPRILWHECFS (peptide)
peptide: MDWCPRILWHECFS
B23: Phage-341 clonal phage peptide MDWCPRHLWDECFN (peptide)
peptide: MDWCPRHLWDECFN
B24: Phage-363 clonal phage peptide MNWCPMHLWAECFN (peptide)
peptide: MNWCPMHLWAECFN
B25: Phage-339 clonal phage peptide MDWCPRTLWDQCFF (peptide)
peptide: MDWCPRTLWDQCFF
B26: Phage-330 (peptide)
peptide: MDWCPRFLWDVCFN
notes: Clonal phage of the Peptide-9 library; also called the position column gives F at position 7)
B27: Phage-311 (peptide)
peptide: MDWCPRDLWYQCFN
notes: Clonal phage of the Peptide-9 library
B28: Phage-313 (peptide)
peptide: MDWCPRSLWNYCFN
notes: as for B27
B29: Phage-316 (peptide)
peptide: MDWCPRSLWNYCFA
notes: as for B27
B30: Phage-333 (peptide)
peptide: MDWCPTDLWHECFA
notes: as for B27
B31: Phage-328 (peptide)
peptide: MDWCPRALWDHCFN
notes: as for B27
B32: Phage-325 (peptide)
peptide: MDWCPAYLWDECFA
notes: as for B27
B33: Phage-310 (peptide)
peptide: MDWCPRDLWDECFN
notes: as for B27
B34: Phage-326 (peptide)
peptide: MFWCPITLWNECFN
notes: as for B27
B35: Phage-322 (peptide)
peptide: MDWCPRHLWIECFN
notes: as for B27
B36: Phage-315 (peptide)
peptide: MDWCPTYLWHVCFS
notes: as for B27
B37: Phage-331 (peptide)
peptide: MDWCPRHLWDECFY
notes: as for B27
B38: Phage-314 (peptide)
peptide: MDWCPIHLWNECFN
notes: as for B27
B39: Phage-332 (peptide)
peptide: IDWCPRALWDACLA
notes: as for B27
B40: Phage-335 (peptide)
peptide: MDWCPRFLWDYCFA
notes: as for B27
B41: Phage-320 (peptide)
peptide: MDWCPTYLWNECFN
notes: as for B27
B42: Phage-324 (peptide)
peptide: MDWCPRHLWYECFS
notes: as for B27
B43: Phage-317 (peptide)
peptide: MDWCPRHLWHECFT
notes: as for B27
B44: Phage-329 (peptide)
peptide: MDWCPRALWNVCFA
notes: Clonal phage of the Peptide-9 library; also called the position column gives N at position 14)
B45: Phage-321 (peptide)
peptide: MDWCPRDLWYVCFA
notes: as for B27
B46: Phage-327 (peptide)
peptide: MHWCPRDLWHVCFN
notes: as for B27
B47: Phage-323 (peptide)
peptide: MDWCPTYLWNVCFA
notes: as for B27
B48: Phage-319 (peptide)
peptide: MSWCPRDLWHLCFF
notes: as for B27
B49: Phage-334 (peptide)
peptide: MDWCPRYLWDECFS
notes: as for B27
B50: Phage-318 (peptide)
peptide: MDWCPMFLWDECFN
notes: as for B26
B51: Phage-222 (peptide)
peptide: MDWCPRDQWHNCFN
notes: tested as crude clonal phage supernatant

Each binder was assayed against T1, anti-CD28 scFv (VH - linker 1 - VL) (biotinylated (site not stated)) (assay: phage ELISA as above; wells pre-incubated with soluble CD28 (competitor)).
T1 sequence (scFv, as listed by the source): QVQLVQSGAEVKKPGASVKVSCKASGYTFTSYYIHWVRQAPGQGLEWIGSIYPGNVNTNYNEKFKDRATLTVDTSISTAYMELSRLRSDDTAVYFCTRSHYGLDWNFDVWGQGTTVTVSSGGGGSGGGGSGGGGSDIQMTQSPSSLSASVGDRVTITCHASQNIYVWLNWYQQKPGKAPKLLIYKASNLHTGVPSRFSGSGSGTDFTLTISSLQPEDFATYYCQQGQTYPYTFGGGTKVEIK

| Binder | CD28 scFv signal in presence of CD28 |
| --- | --- |
| B1 | 0.173 |
| B2 | 0.478 |
| B3 | 0.119 |
| B4 | 0.287 |
| B5 | 0.279 |
| B6 | 0.182 |
| B7 | 0.175 |
| B8 | 0.138 |
| B9 | 0.16 |
| B10 | 0.203 |
| B11 | 0.39 |
| B12 | 0.225 |
| B13 | 0.109 |
| B14 | 0.167 |
| B15 | 0.24 |
| B16 | 0.178 |
| B17 | 0.193 |
| B18 | 0.152 |
| B19 | 0.148 |
| B20 | 0.368 |
| B21 | 0.267 |
| B22 | 0.174 |
| B23 | 0.268 |
| B24 | 0.14 |
| B25 | 0.314 |

What follows are binders tested against T2, Anti-CD28 scFv (VH - linker 1 - VL) (biotinylated (site not stated)) (assay: phage ELISA as above; wells pre-incubated with soluble CD28 as competitor;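 further: crude clonal phage supernatants tested, with bound phage detected by HRP-conjugated anti-M13 antibody, and reference wells given blocking buffer without CD28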).
T2 construct: Biotinylated anti-CD28 scFv captured on neutravidin coated plates in the panning ELISA
T2 sequence (scFv, as listed by the source): as above

| Binder | CD28 scFv signal in presence of CD28 |
| --- | --- |
| B26 | 0.309 |
| B27 | 0.609 |
| B28 | 0.209 |
| B29 | 0.198 |
| B30 | 0.154 |
| B31 | 0.293 |
| B32 | 0.163 |
| B33 | 0.248 |
| B34 | 0.143 |
| B35 | 0.376 |
| B36 | 0.16 |
| B37 | 0.146 |
| B38 | 0.157 |
| B39 | 0.164 |
| B40 | 0.207 |
| B41 | 0.606 |
| B42 | 0.163 |
| B43 | 0.32 |
| B44 | 0.249 |
| B45 | 0.138 |
| B46 | 0.15 |
| B47 | 0.132 |
| B48 | 0.319 |
| B49 | 0.164 |
| B50 | 0.203 |

Each binder was assayed against T3, anti-CD28 scFv (VH - linker 1 - VL) (biotinylated (site not stated)) (assay: clonal phage ELISA; biotinylated anti-CD28 scFv on neutravidin plate, anti-M13-HRP detection;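 further: crude supernatants of phage clones were tested in wells pretreated with blocking buffer either alone or supplemented with soluble CD28 protein before phage addition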).
T3 construct: Captured as biotinylated scFv on neutravidin coated plates in the clonal phage ELISA
T3 sequence (scFv, as listed by the source): as above

| Binder | CD28 scFv signal |
| --- | --- |
| B51 | 0.2 |

Each binder was assayed against T2, Anti-CD28 scFv (VH - linker 1 - VL) (assay: phage ELISA; biotinylated anti-CD28 scFv on neutravidin plate, clonal phage supernatant, anti-M13-HRP;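 further: before the phage were added, wells were pre-incubated with soluble CD28 protein in blocking buffer, or with blocking buffer alone, and were not washed in between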).
Protocol: (§1) Clonal phage were harvested as crude supernatants and screened via standard enzyme linked immunosorbent assays (ELISAs). […] Prior to the addition of clonal phage, wells were incubated with blocking buffer and CD28 soluble protein or blocking buffer alone. Without washing or aspirating, clonal phage supernatants were then added to the wells and incubated for a short time. Wells were then washed followed by detection of bound phage using a horse radish peroxidase conjugated anti-M13 antibody.

| Binder | CD28 scFv signal |
| --- | --- |
| B26 | 2.14 |
| B27 | 2.35 |
| B28 | 2.35 |
| B29 | 2.32 |
| B30 | 2.07 |
| B31 | 2.15 |
| B32 | 2.17 |
| B33 | 2.37 |
| B34 | 2.15 |
| B35 | 2.21 |
| B36 | 2.32 |
| B37 | 2.13 |
| B38 | 2.35 |
| B39 | 2.1 |
| B40 | 2.03 |
| B41 | 2.24 |
| B42 | 2.17 |
| B43 | 2.3 |
| B44 | 2.14 |
| B45 | 2.22 |
| B46 | 2.15 |
| B47 | 2.21 |
| B48 | 2.27 |
| B49 | 2.06 |
| B50 | 2.29 |

What follows are binders tested against T1, anti-CD28 scFv (VH - linker 1 - VL) in the same assay as above.
Protocol: as §1

| Binder | CD28 scFv signal |
| --- | --- |
| B1 | 1.91 |
| B2 | 1.43 |
| B3 | 1.93 |
| B4 | 2 |
| B5 | 1.77 |
| B6 | 1.69 |
| B7 | 1.97 |
| B8 | 1.44 |
| B9 | 1.74 |
| B10 | 1.73 |
| B11 | 2.03 |
| B12 | 1.91 |
| B13 | 1.6 |
| B14 | 1.83 |
| B15 | 1.78 |
| B16 | 1.65 |
| B17 | 1.44 |
| B18 | 2.02 |
| B19 | 1.99 |
| B20 | 1.69 |
| B21 | 1.81 |
| B22 | 1.39 |
| B23 | 1.98 |
| B24 | 1.39 |
| B25 | 1.99 |

The binders below were run against T3, anti-CD28 scFv (VH - linker 1 - VL) (assay: clonal phage ELISA; captured anti-CD28 scFv pre-incubated with soluble CD28 (competitor), anti-M13-HRP detection;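 further: crude clonal phage supernatants added to wells pretreated with soluble CD28 in blocking buffer, compared against wells given blocking buffer only, then bound phage measured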).
Protocol: as §1

| Binder | CD28 scFv signal in presence of CD28 |
| --- | --- |
| B51 | 0.078 |
